For assay [1], the target named is T1, recombinant human IGF-1R (rhIGF-1R), immobilized on plates or polystyrene beads (human, UniProt P08069 31-935).
T1 construct: also called immobilized recombinant human IGF-1R; IGF-1R-coated beads
Kind of assay: labeled antibody on rhIGF-1R-coated beads; competitor: unlabeled cR1.

The target of assay [2] is T1, recombinant human IGF-1R (rhIGF-1R), …. Nature of the assay: labeled antibody on rhIGF-1R-coated beads; competitor: unlabeled R1.
Assay [3] has the same target. Kind of assay: labeled antibody on rhIGF-1R-coated beads; competitor: unlabeled 3B7.
Assay [4] has the same target. Kind of assay: labeled antibody on rhIGF-1R-coated beads; competitor: unlabeled 1-2.
Assay [5] has the same target. Kind of assay: labeled antibody on rhIGF-1R-coated beads; competitor: unlabeled 24-57.
Assay [6] has the same target. Kind of assay: labeled antibody on rhIGF-1R-coated beads; competitor: unlabeled αIR-3.
For assay [7] the target is unchanged. Kind of assay: labeled antibody on rhIGF-1R-coated beads; competitor: unlabeled MAB391.
The target is the same in assay [8]. Kind of assay: labeled antibody on rhIGF-1R-coated beads; competitor: unlabeled 24-60.
The target is the same in assay [9]. Kind of assay: labeled antibody on rhIGF-1R-coated beads; competitor: unlabeled 1H7.
For assay [10] the target is unchanged. Kind of assay: labeled antibody on rhIGF-1R-coated beads; competitor: unlabeled 2C8.
The target is the same in assay [11]. Kind of assay: labeled antibody on rhIGF-1R-coated beads; competitor: unlabeled 24-31.
Assay [12] has as its target recombinant human insulin receptor (rhIR), immobilized (human, UniProt P06213-2 28-944, limits assumed). Kind of assay: hybridoma screening; method not described.
For assay [13], the target named is T1, recombinant human IGF-1R (rhIGF-1R), …. Kind of assay: labeled antibody on rhIGF-1R-coated beads; competitor: unlabeled 17-69.
Assay [14] has the same target. Nature of the assay: labeled antibody on rhIGF-1R-coated beads; competitor: unlabeled hR1.

recombinant human insulin receptor (rhIR), immobilized, sequence (P06213 other isoform, or with tags, fused parts or gaps limits assumed): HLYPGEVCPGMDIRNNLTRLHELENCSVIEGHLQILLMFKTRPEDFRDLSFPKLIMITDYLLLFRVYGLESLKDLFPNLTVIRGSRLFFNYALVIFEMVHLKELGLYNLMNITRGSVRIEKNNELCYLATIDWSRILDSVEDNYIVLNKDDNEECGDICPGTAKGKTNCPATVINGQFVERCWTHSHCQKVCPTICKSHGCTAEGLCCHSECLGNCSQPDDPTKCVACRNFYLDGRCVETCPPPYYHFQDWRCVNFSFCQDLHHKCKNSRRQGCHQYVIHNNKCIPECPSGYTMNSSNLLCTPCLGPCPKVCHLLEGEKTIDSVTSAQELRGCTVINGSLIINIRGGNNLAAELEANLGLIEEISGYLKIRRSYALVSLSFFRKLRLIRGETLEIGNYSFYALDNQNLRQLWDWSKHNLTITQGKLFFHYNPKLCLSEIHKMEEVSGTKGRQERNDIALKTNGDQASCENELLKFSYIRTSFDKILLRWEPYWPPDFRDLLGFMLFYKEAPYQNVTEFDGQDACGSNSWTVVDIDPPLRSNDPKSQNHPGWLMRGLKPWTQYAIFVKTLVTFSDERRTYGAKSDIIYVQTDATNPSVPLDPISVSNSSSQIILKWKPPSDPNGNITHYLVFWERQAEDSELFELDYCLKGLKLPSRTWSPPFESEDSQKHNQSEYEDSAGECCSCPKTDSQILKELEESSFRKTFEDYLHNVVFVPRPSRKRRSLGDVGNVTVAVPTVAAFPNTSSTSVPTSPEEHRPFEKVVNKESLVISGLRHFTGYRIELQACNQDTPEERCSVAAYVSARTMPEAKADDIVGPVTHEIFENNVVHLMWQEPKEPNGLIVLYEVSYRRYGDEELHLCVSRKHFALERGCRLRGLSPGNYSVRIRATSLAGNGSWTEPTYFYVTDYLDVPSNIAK

B1: mouse anti-IGF-1R antibody R1 (ML04R1) (antibody, V domains shown)
VH: EVKLVESGGGLVQPGGSLKLSCATSGFTFSDYYMYWVRQTPEKRLEWVAYITNYGGSTYYPDTVKGRFTISRDNAKNTLYLQMSRLRSEDTAMYFCARQSNYDYDGWFAYWGQGTTVTVSS
VL: DIVMTQSHKFMSTSVGDRVSITCKASQEVGTAVAWYQQKPGQSPKLLIYWASTRHTGVPDRFTGSGSGTDFTLTISNVQSEDLADYFCQQYSNYPLTFGAGAKLELKR
notes: Used unlabeled or tagged with a fluorescent probe (PE); also called murine R1; clone C-11
Regarding B1, the “% binding” value worked out at 0% in [1]; 0% in [2]; 117% in [3]; 100% in [4]; 100% in assay [5]; 143% in [6]. Also, the “% binding” value was found to be 100% in assay [7]; 43% in assay [8]; 150% in assay [9]; 100% in assay [10]; 100% in assay [11]; 100% in assay [13]. Further, the “% binding” value in assay [14] amounted to 0%. In addition, the binding result in assay [12] was “no binding”.
